Assay results reported in publication PMC6222095 (2018).
Changes are numbered by the printed parent chain.

B1: complement factor H, homozygous Tyr-402/Val-62 allotype (natural protein)
chain: EDCNELPPRRNTEILTGSWSDQTYPEGTQAIYKCRPGYRSLGNVIMVCRKGEWVALNPLRKCQKRPCGHPGDTPFGTFTLTGGNVFEYGVKAVYTCNEGYQLLGEINYRECDTDGWTNDIPICEVVKCLPVTAPENGKIVSSAMEPDREYHFGQAVRFVCNSGYKIEGDEEMHCSDDGFWSKEKPKCVEISCKSPDVINGSPISQKIIYKENERFQYKCNMGYEYSERGDAVCTESGWRPLPSCEEKSCDNPYIPNGDYSPLRIKHRTGDEITYQCRNGFYPATRGNTAKCTSTGWIPAPRCTLKPCDYPDIKHGGLYHENMRRPYFPVAVGKYYSYYCDEHFETPSGSYWDHIHCTQDGWSPAVPCLRKCYFPYLENGYNQNYGRKFVQGKSIDVACHPGYALPKAQTTVTCMENGWSPTPRCIRVKTCSKSSIDIENGFISESQYTYALKEKAKYQCKLGYVTADGETSGSITCGKDGWSAQPTCIKSCDIPVFMNARTKNDFTWFKLNDTLDYECHDGYESNTGSTTGSIVCGYNGWSDLPICYERECELPKIDVHLVPDRKKDQYKVGEVLKFSCKPGFTIVGPNSVQCYHFGLSPDLPICKEQVQSCGPPPELLNGNVKEKTKEEYGHSEVVEYYCNPRFLMKGPNKIQCVDGEWTTLPVCIVEESTCGDIPELEHGWAQLSSPPYYYGDSVEFNCSESFTMIGHRSITCIHGVWTQLPQCVAIDKLKKCKSSNLIILEEHLKNKKEFDHNSNIRYRCRGKEGWIHTVCINGRWDPEVNCSMAQIQLCPPPPQIPNSHNMTTTLNYRDGEKVSVLCQENYLIQEGEEITCKDGRWQSIPLCVEKIPCSQPPQIEHGTINSSRSSQESYAHGTKLSYTCEGGFRISEENETTCYMGKWSSPPQCEGLPCKSPPEISHGVVAHMSDSYQYGEEVTYKCFEGFGIDGPAIAKCLGEKWSHPPSCIKTDCLSLPSFENAIPMGEKKDVYKAGEQVTYTCATYYKMDGASNVTCINSRWTGRPTCRDTSCVNPPTVQNAYIVSRQMSKYPSGERVRYQCRSPYEMFGDEEVMCLNGNWTEPPQCKDSTGKCGPPPPIDNGDITSFPLSVYAPASSVEYQCQNLYQLEGNKRITCRNGQWSEPPKCLHPCVISREIMENYNIALRWTAKQKLYSRTGESVEFVCKRGYRLSSRSHTLRTTCWDGKLEYPTCAKR
modifications: eight biantennary disialylated N-glycans; sites as printed: Asn-511, Asn-700, Asn-784, Asn-804, Asn-864, Asn-892, Asn-1011, Asn-1077
B2: complement factor H, double homozygous His-402/Val-62 allotype (natural protein)
chain: B1 chain with Y384H
modifications: eight biantennary disialylated N-glycans; sites as printed: Asn-511, Asn-700, Asn-784, Asn-804, Asn-864, Asn-892, Asn-1011, Asn-1077

What was measured:
[1] = biological target: B2; experiment: SPR
SPR = biological target: the molecule itself; experiment: SPR

Kd [1] [µM]	Binder	Kd (SPR) [µM]
> 40	B1	
	B2	> 40
